Results on 17 molecules are retold here after patent publication US20060019241A1, “Na+ and CI-coupled transport system for endogenous opioid peptides” (priority 2004, published 2006).

Ends that are not written are not given here.

For this experiment, the target named is Na+- and Cl--coupled transport system for endogenous opioid peptides (human cell lines ARPE-19, Tat-ARPE-19 and SK-N-SH) (human). Briefly: cell-based or functional assay.
As for “[Arg6, Gly7, Leu8]Met-enkephalin (Tyr-Gly-Gly-Phe-Met-Arg-Gly-Leu) (peptide)”, the IC50 for inhibition of [3H]deltorphin II uptake in Tat-ARPE-19 cells was 2.5 mM; the [3H]deltorphin II (50 nM) uptake in Tat-ARPE-19 cells, 30 min, NaCl, inhibitor 1 mM (pmol/mg protein/30 min) worked out at 0.09; the [3H]deltorphin II (50 nM) uptake in control ARPE-19 cells, 30 min, NaCl, opioid peptide 1 mM (pmol/mg protein/30 min) was found to be 0.04; the [3H]deltorphin II uptake (%) in Tat-ARPE-19 cells, inhibitor 1 mM was 1 % of control. The [3H]deltorphin II uptake (%) in control ARPE-19 cells, opioid peptide 1 mM is 4 % of control.

In the case of Gly-Gly-Ile (peptide), the stimulation of deltorphin II uptake in SK-N-SH cells is 6 to 8 fold.

For “α-Neo-endorphin (1-6) (Tyr-Gly-Gly-Phe-Met-Lys) (peptide)”, the [3H]deltorphin II (50 nM) uptake in Tat-ARPE-19 cells, 30 min, NaCl, inhibitor 1 mM (pmol/mg protein/30 min) was 0.19 and the [3H]deltorphin II uptake (%) in Tat-ARPE-19 cells, inhibitor 1 mM is 3 % of control.

For the molecule “Dynorphin A (1-6) (Tyr-Gly-Gly-Phe-Leu-Arg) (peptide)”, the IC50 for inhibition of [3H]deltorphin II uptake in Tat-ARPE-19 cells was 4.2 mM; the [3H]deltorphin II (50 nM) uptake in Tat-ARPE-19 cells, 30 min, NaCl, inhibitor 1 mM (pmol/mg protein/30 min) is 0.12; the [3H]deltorphin II (50 nM) uptake in control ARPE-19 cells, 30 min, NaCl, opioid peptide 1 mM (pmol/mg protein/30 min) worked out at 0.06; the [3H]deltorphin II uptake (%) in Tat-ARPE-19 cells, inhibitor 1 mM is 2 % of control. For the same molecule, the [3H]deltorphin II uptake (%) in control ARPE-19 cells, opioid peptide 1 mM is 5 % of control and the affinity from concentration-dependent inhibition of [3H]deltorphin II (25 nM) uptake in SK-N-SH cells turned out to be 3.5 µM.

For “Met-enkephalinamide (Tyr-Gly-Gly-Phe-Met-NH2) (peptide)”, the IC50 for inhibition of [3H]deltorphin II uptake in Tat-ARPE-19 cells was 13 mM; the [3H]deltorphin II (50 nM) uptake in Tat-ARPE-19 cells, 30 min, NaCl, inhibitor 1 mM (pmol/mg protein/30 min) was determined as 0.69; the [3H]deltorphin II uptake (%) in Tat-ARPE-19 cells, inhibitor 1 mM is 9 % of control.

As to “β-Casomorphin (Tyr-Pro-Phe-Pro-Gly-Pro-Ile) (peptide)”, the [3H]deltorphin II (50 nM) uptake in Tat-ARPE-19 cells, 30 min, NaCl, inhibitor 1 mM (pmol/mg protein/30 min) is 2.03 and the [3H]deltorphin II uptake (%) in Tat-ARPE-19 cells, inhibitor 1 mM is 26 % of control.

With “Met-enkephalin (Tyr-Gly-Gly-Phe-Met) (peptide)”, the IC50 for inhibition of [3H]deltorphin II uptake in Tat-ARPE-19 cells worked out at 33.2 mM; the [3H]deltorphin II (50 nM) uptake in Tat-ARPE-19 cells, 30 min, NaCl, inhibitor 1 mM (pmol/mg protein/30 min) stood at 0.5; the [3H]deltorphin II (50 nM) uptake in control ARPE-19 cells, 30 min, NaCl, opioid peptide 1 mM (pmol/mg protein/30 min) was found to be 0.06; the [3H]deltorphin II uptake (%) in Tat-ARPE-19 cells, inhibitor 1 mM was 6 % of control. Moreover, the [3H]deltorphin II uptake (%) in control ARPE-19 cells, opioid peptide 1 mM was 5 % of control and the affinity from concentration-dependent inhibition of [3H]deltorphin II (25 nM) uptake in SK-N-SH cells was 10.7 µM.

For the molecule “[Arg6, Phe7]Met-enkephalin (Tyr-Gly-Gly-Phe-Met-Arg-Phe) (peptide)”, the IC50 for inhibition of [3H]deltorphin II uptake in Tat-ARPE-19 cells worked out at 9.1 mM; the [3H]deltorphin II (50 nM) uptake in Tat-ARPE-19 cells, 30 min, NaCl, inhibitor 1 mM (pmol/mg protein/30 min) was found to be 0.11; the [3H]deltorphin II (50 nM) uptake in control ARPE-19 cells, 30 min, NaCl, opioid peptide 1 mM (pmol/mg protein/30 min) turned out to be 0.05; the [3H]deltorphin II uptake (%) in Tat-ARPE-19 cells, inhibitor 1 mM was 1 % of control. Moreover, the [3H]deltorphin II uptake (%) in control ARPE-19 cells, opioid peptide 1 mM was 4 % of control.

On to Carnosine (β-Ala-His) (peptide), for which the [3H]deltorphin II (50 nM) uptake in Tat-ARPE-19 cells, 30 min, NaCl, inhibitor 1 mM (pmol/mg protein/30 min) turned out to be 6.21 and the [3H]deltorphin II uptake (%) in Tat-ARPE-19 cells, inhibitor 1 mM is 80 % of control.

On to “Dynorphin A (1-7) (Tyr-Gly-Gly-Phe-Leu-Arg-Arg) (peptide)”, for which the IC50 for inhibition of [3H]deltorphin II uptake in Tat-ARPE-19 cells was determined as 7.3 mM; the [3H]deltorphin II (50 nM) uptake in Tat-ARPE-19 cells, 30 min, NaCl, inhibitor 1 mM (pmol/mg protein/30 min) amounted to 0.1; the [3H]deltorphin II (50 nM) uptake in control ARPE-19 cells, 30 min, NaCl, opioid peptide 1 mM (pmol/mg protein/30 min) is 0.05; the [3H]deltorphin II uptake (%) in Tat-ARPE-19 cells, inhibitor 1 mM is 1 % of control. Also, the [3H]deltorphin II uptake (%) in control ARPE-19 cells, opioid peptide 1 mM was 5 % of control and the affinity from concentration-dependent inhibition of [3H]deltorphin II (25 nM) uptake in SK-N-SH cells came out at 4.6 µM.

On to Tyr-Pro (peptide), for which the [3H]deltorphin II (50 nM) uptake in Tat-ARPE-19 cells, 30 min, NaCl, inhibitor 1 mM (pmol/mg protein/30 min) came out at 5.72 and the [3H]deltorphin II uptake (%) in Tat-ARPE-19 cells, inhibitor 1 mM is 74 % of control.

Turning to “β-Lipotropin (Tyr-Gly-Gly-Phe) (peptide)”, the [3H]deltorphin II (50 nM) uptake in Tat-ARPE-19 cells, 30 min, NaCl, inhibitor 1 mM (pmol/mg protein/30 min) was 6.26 and the [3H]deltorphin II uptake (%) in Tat-ARPE-19 cells, inhibitor 1 mM is 81 % of control.

Turning to Gly-Gly-Gly (peptide), the [3H]deltorphin II (50 nM) uptake in Tat-ARPE-19 cells, 30 min, NaCl, inhibitor 1 mM (pmol/mg protein/30 min) stood at 9.68 and the [3H]deltorphin II uptake (%) in Tat-ARPE-19 cells, inhibitor 1 mM was 125 % of control.

As to “Leu-enkephalin (Tyr-Gly-Gly-Phe-Leu) (peptide)”, the IC50 for inhibition of [3H]deltorphin II uptake in Tat-ARPE-19 cells was 9.5 mM; the [3H]deltorphin II (50 nM) uptake in Tat-ARPE-19 cells, 30 min, NaCl, inhibitor 1 mM (pmol/mg protein/30 min) is 0.15; the [3H]deltorphin II uptake (%) in Tat-ARPE-19 cells, inhibitor 1 mM was 2 % of control; the affinity from concentration-dependent inhibition of [3H]deltorphin II (25 nM) uptake in SK-N-SH cells came to 7.8 µM.

As for “[des-Tyr1]Met-enkephalin (Gly-Gly-Phe-Met) (peptide)”, the IC50 for inhibition of [3H]deltorphin II uptake in Tat-ARPE-19 cells is 31.9 mM; the [3H]deltorphin II (50 nM) uptake in Tat-ARPE-19 cells, 30 min, NaCl, inhibitor 1 mM (pmol/mg protein/30 min) was 0.74; the [3H]deltorphin II uptake (%) in Tat-ARPE-19 cells, inhibitor 1 mM was 10 % of control.

With YGGFLRRQF [Dynorphin B (1-9) (Tyr-Gly-Gly-Phe-Leu-Arg-Arg-Gln-Phe)], the IC50 for inhibition of [3H]deltorphin II uptake in Tat-ARPE-19 cells turned out to be 3.1 mM; the [3H]deltorphin II (50 nM) uptake in Tat-ARPE-19 cells, 30 min, NaCl, inhibitor 1 mM (pmol/mg protein/30 min) was 0.08; the [3H]deltorphin II (50 nM) uptake in control ARPE-19 cells, 30 min, NaCl, opioid peptide 1 mM (pmol/mg protein/30 min) came out at 0.06; the [3H]deltorphin II uptake (%) in Tat-ARPE-19 cells, inhibitor 1 mM was 1 % of control. The [3H]deltorphin II uptake (%) in control ARPE-19 cells, opioid peptide 1 mM is 5 % of control.

Regarding YPLG-NH2 [tyrosine melanocyte-stimulating hormone inhibitory factor 1 (Tyr-MIF-1; Tyr-Pro-Leu-Gly-NH2)], the [3H]deltorphin II (50 nM) uptake in Tat-ARPE-19 cells, 30 min, NaCl, inhibitor 1 mM (pmol/mg protein/30 min) was 9.2 and the [3H]deltorphin II uptake (%) in Tat-ARPE-19 cells, inhibitor 1 mM is 119 % of control.
